According to US12544447B2, “Nuclease-dendrimer formulations for Covid-19 and broad-spectrum antiviral therapy and prophylaxis” (priority 2020, dated 2026):
Where two headings read alike, the source gives them in different places.

B1: mildly cationized RNase: bovine pancreatic RNase A carboxyl groups amidated with ethylenediamine using 10 mg EDC; mixture of diversely modified proteins (protein, UniProt P61823 27-150, looked up)
Ribonuclease pancreatic: KETAAAKFERQHMDSSTSAASSSNYCNQMMKSRNLTKDRCKPVNTFVHESLADVQAVCSQKNVACKNGQTNCYQSYSTMSITDCRETGSSKYPNCAYKTTQANKHIIVACEGNPYVPVHFDASV
modifications: carboxyls amidated with ethylenediamine, mildly cationized
notes: bovine pancreatic RNase A carboxyl groups amidated with ethylenediamine using 10 mg EDC; mixture of diversely modified proteins
B2: highly cationized RNase: bovine pancreatic RNase A carboxyl groups amidated with ethylenediamine using EDC 80+80+40 mg; mixture of diversely modified proteins (protein, UniProt P61823 27-150, looked up)
Ribonuclease pancreatic: B1 Ribonuclease pancreatic
modifications: carboxyls amidated with ethylenediamine, highly cationized
notes: bovine pancreatic RNase A carboxyl groups amidated with ethylenediamine using EDC 80+80+40 mg; mixture of diversely modified proteins
B3: ranpiRNase: ribonuclease enzyme found in the oocytes of the northern leopard frog (rana pipiens) (protein, UniProt P22069 1-104, looked up)
Protein P-30: QDWLTFQKKHITNTRDVDCDNIMSTNLFHCKDKNTFIYSRPEPVKAICKGIIASKNVLTTSEFYLSDCNVTSRPCKYKLKKSTNKFCVTCENQAPVHFVGVGSC

Assays:
HCoV-OC43 virus = format: cell-based; details: OC43, HEK293T
HEK293T cells = experiment: Cytotoxicity of cationized RNase using HEK293T cells; format: cell-based, human
Protocol: In this example, initially, the cytotoxicity of cationized RNase using HEK293T cells is tested. Next, the highest dose with more than 80% surviving cells is selected for an anti-viral test of a co-treatment of RNase/DNase complexed with a highly cationic molecule dendrimer (the generation 2 poly PAMAM dendrimer described above) to enhance the efficacy of ribonucleases as anti-virus (HCoV-NL63/OC43) agents.
In this set of exemplar experiments, the same methodology, including the cellular compositions, viral samples, and RNase/DNase formulations from Example 1 are utilized in the various experimental combinations shown in FIG. 21.

[1] = Aggregate net charge estimated from published data; format: physicochemical; details: calculated estimates from published data
Source text: To determine the resulting aggregate net charge of each mixture (mildly or highly) cationized RNase A may be fractionated according to net charge by cation-exchange chromatography. Based upon calculated estimates from published data, the aggregate net charge of the mildly cationized RNase obtained from the above methodology is approximately +11 to +13 and the aggregate net charge of the highly cationized RNase obtained from the above methodology is approximately +21 to +23.

OC43 virus = experiment: RT-qPCR of cell culture medium for OC43 virus; details: RNase 10 μg/mL, dendrimer 10 μM where present
Protocol: To conduct the RT-qPCR testing, cell culture medium was collected at 3 and 5 days after virus infection with or without mild RNase plus dendrimer treatment for RT-qPCR test. RNA from the infection virus were used for reverse transcriptase (RT) to direct complimentary DNA (cDNA) synthesis. The resulting cDNA was used as templates for the RT-qPCR reaction with a SYBR RT-PCR Kit. Reaction conditions were: 30 minutes RT at 50° C., 15 minutes at 94° C. for inactivation of reverse transcriptase (RT), followed by 40 cycles of 95° C. for 15 seconds, 60° C. for 45 seconds. Finally, conditions of 65° C. for 5 seconds and 95° C. for 5 seconds were used.
Melting curve analysis was performed under the condition of 95° C. for 60 seconds, 40° C. for 60 seconds, 65° C. for 1 second, followed by a slow increase from 65° C. to 95° C. at a rate of 0.07° C. per second.
Note that the limit for this PCR reaction is between 10-100 particles, which is sufficient to detect if a well is infected or has virus present.

[2] = cited from earlier work
HIV = details: published research; cited from earlier work

Row | Molecule | effective reduction compared to the control group (TCID50) (HCoV-OC43 virus; 7.5 μg/ml) | concentration with survival of 80% of the control cells (HEK293T cells; FIG. 22) | aggregate net charge [1] | virus detection in medium by RT-qPCR after 3 days (OC43 virus; 3 days) | virus detection in medium by RT-qPCR after 5 days (OC43 virus; 5 days) | effective reduction compared to the control group (TCID50) (HCoV-OC43 virus; highly cationized formulation) | concentration with 80% survival of control cells, interpolated (HEK293T cells; interpolation of experimental results) | maximum tolerated dose (MTD) ([2]; intravenously weekly, patients with malignant mesothelioma) | maximum tolerated dose (MTD) ([2]; of skin area, phase one clinical study) | antiviral effect on HIV (HIV)
1 | B1 | 6.8 × | 10 µg/mL | +11 to +13 | detected | detected |  |  |  |  | 
2 | B2 |  |  | +21 to +23 |  |  | negligible | 0.2 to 0.5 µg/mL |  |  | 
3 | B3 |  |  |  |  |  |  |  | 960 mg/m2 | 960 μg/m^2 | shown antiviral activity against HIV
